Patent US20160151452A1

Legend:
[1] = target: EphA8-Fc; assay: SPR, cupredoxin immobilised on CM5 chip, 100 nM Eph-Fc injected
[2] = target: EphB1-Fc; assay: as above
EphB1-Fc, sequence (P09759 18-540): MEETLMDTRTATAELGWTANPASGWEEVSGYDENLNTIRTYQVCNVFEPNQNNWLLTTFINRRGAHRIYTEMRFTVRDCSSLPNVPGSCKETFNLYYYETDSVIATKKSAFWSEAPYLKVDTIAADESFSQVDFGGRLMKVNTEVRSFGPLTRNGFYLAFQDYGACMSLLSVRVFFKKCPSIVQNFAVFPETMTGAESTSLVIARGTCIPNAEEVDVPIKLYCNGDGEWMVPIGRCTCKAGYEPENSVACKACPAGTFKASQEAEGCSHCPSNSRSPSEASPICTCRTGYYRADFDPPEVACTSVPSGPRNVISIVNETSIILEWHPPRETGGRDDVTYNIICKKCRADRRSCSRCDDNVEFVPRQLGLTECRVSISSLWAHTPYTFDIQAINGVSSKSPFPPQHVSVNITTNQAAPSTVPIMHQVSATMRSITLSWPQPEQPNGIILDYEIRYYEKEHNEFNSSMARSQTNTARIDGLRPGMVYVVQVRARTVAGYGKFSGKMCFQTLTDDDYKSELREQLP

EphA8-Fc, sequence (O09127 27-541): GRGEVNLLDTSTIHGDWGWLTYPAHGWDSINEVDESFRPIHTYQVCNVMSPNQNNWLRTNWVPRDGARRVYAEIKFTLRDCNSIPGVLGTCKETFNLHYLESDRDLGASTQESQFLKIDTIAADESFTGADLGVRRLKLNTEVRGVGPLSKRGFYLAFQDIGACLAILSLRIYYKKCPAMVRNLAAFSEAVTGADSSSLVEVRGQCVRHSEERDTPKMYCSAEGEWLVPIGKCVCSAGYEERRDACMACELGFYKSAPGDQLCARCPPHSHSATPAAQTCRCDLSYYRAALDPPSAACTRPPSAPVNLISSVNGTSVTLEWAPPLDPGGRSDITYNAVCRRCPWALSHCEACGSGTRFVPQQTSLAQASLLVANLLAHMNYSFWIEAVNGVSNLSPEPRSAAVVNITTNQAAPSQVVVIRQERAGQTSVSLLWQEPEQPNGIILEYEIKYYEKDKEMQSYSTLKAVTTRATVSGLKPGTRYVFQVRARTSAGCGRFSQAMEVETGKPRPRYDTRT

B1: rusticyanin from Thiobacillus ferrooxidans (protein)
chain: GTLDTTWKEATLPQVKAMLEKDTGKVSGDTVTYSGKTVHVVAAAVLPGFPFPSFEVHDKKNPTLEIPAGATVDVTFINTNKGFGHSFDITKKGPPYAVMPVIDPIVAGTGFSPVPKDGKFGYTDFTWHPTAGTYYYVCQIPGHAATGMFGKIVVK
With B1 as the binder, how does the Req (saturating resonance) [1] read?
Its Req (saturating resonance) is 79 RU.

And the Req (saturating resonance) [2]?
Its Req (saturating resonance) is 79 RU.
